Results published in article PMC2839090.

Biological target: GST fused with the C-terminal variable region of LigB (LigBCtv; amino acids 1418-1889) (Leptospira interrogans serovar Pomona)
Experiment: ITC

- Kd: 8.55 µM
Substance: Human plasma fibronectin (natural protein)
